A short description of this data set: yeast display, Sf9 membrane polyspecificity reagent, FACS + sequencing; frameworks hold sequencing errors. A digest of the protocol: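 After 36–48 hours of galactose induction, yeast (Saccharomyces cerevisiae BJ5465) displaying a synthetic nanobody library were stained at 4 °C for 1 hour with 10% biotinylated, detergent-solubilized Sf9 membrane reagent. Streptavidin microbeads enriched the stained cells before FACS sorting into low and high (top ~1%) gates on anti-HA and streptavidin fluorescence. Each clone's polyreactivity label reflects its gate of origin.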
Regarding “QVQLVESGGGLVQAGGSLRLTCAASGFIYPYYAMGWYRQATGKERELVATNTRSGGSTYYADSVKGRFTISLDNAKNNVYLQMNSVKQEDSAVYSCAADIYWYRGYGFWGQGTQVTVSS”, the “polyreactivity (PSR sort gate)” value is reported as “high polyreactivity”. With “QVQLVDSGGGLVQAGGSLRLSCAASGSTFYGYTMGWYRQAPGKERELVAAITSSGGSTYYADTVKGRFTISRDNAKNTVYLQMNSLNPEDTAVYYCAARGYRHFYYWGQGTQVTVSS” the entry was “high polyreactivity”; with “QVQLVESGGGLVQAGGSLRLSCAASGSTFPYNAMGWYRQAPGQERELVAAITRGGRTYYADSLKGRFTISRDNSKNTVYLQMISLKPEDTAVYYCAAYYSGYSKKFDYWGQGTQVTVSS”, “high polyreactivity”. With “QVQLVESGGGLDQAGGSLRLSCAASGFTFVGNAMGWYRQAPGKERELVATITSGGNTKYADSVKGRFTISRDNAKNTVYLQMNSLKPEDTAVYYCAAAKYNYRRFNYWGQGTQVTVSS” the entry was “low polyreactivity”. As for “QVQLVESGGGLVQARGSLRLSCAASGRTFTYNAMAWYRQAPGKERELVAAINSGGSTNYADSVKGRFTISRDNAKNTVYLQMNSLKPEDTAVYYCNAGFGFGSSRYGTRYYYWGQGSQVTVSS”, the “polyreactivity (PSR sort gate)” value is listed as “low polyreactivity”. As for “QVQLVESGGGLVQAGGSLRLSCAPSGSIFGGYAMGWYRQAPGKERELVAGITYSGDSTYYADSVKGRFTISRDNAKYTVYLQMNSLKPEDTAVYYCNADQRVDHDDFDYWGQGTQVTVSS”, the “polyreactivity (PSR sort gate)” value is recorded as “low polyreactivity”.

On to “QDQLVESGGGLVQAGGTLRLSGAASGRTFDRNAMGWYRQAPGKAWEVVAGITRSGDSTYADSVKGRFTISRDNAKNTVYLQMNSLKPEDTAVYYCNKEGTVGGTRGYWGQGTQVTVSS”, for which the “polyreactivity (PSR sort gate)” value is given as “low polyreactivity”. With “QVQLVESGGGLVQAGGSLRLSCAASGSTFTVNGMGWYRQAPGKERELVASITWSGGSTYYADSVKGRFTISRDNAKNTVYLQLNSLKPEDTAVYYCNAVDTRVPSIRFDYWGQRTQVTVSS” the entry was “low polyreactivity”; with “QVQLVESGVGLVQAGGSHRLSCAASGSIFGFYVMGWYRQAPGKERELVAAISRGGTRTYYADSVKGRFTISRDNAKNTVYLQMNSLKPEDTAVYYCAKYDGGSGTGPRSDYWGQGTQVTVSS”, “high polyreactivity”; with “QVQLVESGGGLVQAGGSLRLSCAASGSIRSYAMGWYRQAPGKERELVAAITRSGGSTYYADSVKGRFTISRDNAKNTVYLQMNSLKPEDTADYYCGARSTYSYPLFGSWGQGTQVTVSS”, “high polyreactivity”.

For “QVQLVESGGGLVQAGGSLRLSCAASGRISFYYAMGWYRQAPGKERELVATISSSGGSTHYADSVKGRFTISRDNAKNTVYLQMNSLKPEDTAVYYCARDDSDRIWLEQSGYWGQGTQVTVSS”, the “polyreactivity (PSR sort gate)” value is reported as “low polyreactivity”.

On to “HGQLVDSGGGLVQAGGSLRLICAASGYTYYDYAMGRYREAPGKEMELVADISTSDGSTFYADSVKGRFTISRDNAKNTVYLQMNSLKPEDTAVYYCNTDGSLGLYDWFWPSNNDYWGQGTQVTVSS”, for which the “polyreactivity (PSR sort gate)” value is listed as “low polyreactivity”. In the case of “QVQLVESGGGLVQAGGSLRLICAASGRTFAIYAMGWYRQAPGKEREIVAAISWSGGDTYYADSVKGRFTISRDNEKNTVYLQMNSLKPEDTAVYYCAADRYDYSYFGYGAQDYDYWGQGTQLTVSS” it was “low polyreactivity”; in that of “QVQLVESGGGLVQAGGSLRLSCAASGRIFQYYAMGWYRQATGKERELVAAISRTGSPYYADSVKGRVTISRDNAKNTVSLQMNSLTPADTAVYFCAADYWPQSNRWVYFRYGYWGLGTQVTVSS”, “high polyreactivity”; in that of “QVQLVESGGGLVQAGGSLRLSCAASGFIFASNAMGWYTQAPGKERELVASITIGDSTYYADSVKGRFTISRDNAKNTVYLQMNSLKPEDTAVYYCAAVKTVDVGYDYWGQGTQVTVSS”, “low polyreactivity”. Take “QVQLVESGGGLFQAGGSLRLSCAASGLIFGYYDMGWYRQAPGKERELVASISRNGGCTYYADSVKGRFTISRDNAKNTVYLQMNRLKTEDTAVYYCARTGPWARYSHGLYKSDYWGQGTQVTVAS”: the “polyreactivity (PSR sort gate)” value is reported as “high polyreactivity”. In the case of “QVQLVESGGGLVQAGGSLRLSCAASGRTFFDHALGWYRPAPGKERELVAAITSVGSTYYADSVKGRFTISRDNAKNTVYLQMNSLKPEDTAVYYCAAHRHIHYTDARMDYWGQGTQVTVSS” it was “low polyreactivity”; in that of “QVQLVESGGCLVQAGGSLRLSCAASGSIFSANAMGWYRQAPGKETELVAAITRGGSTNYADSVKGRFTIARDNAKNTVYLQMNSLKPEDTAVYYCNDEPDPYSSGRVRRDYDYWGQGTQVTVSS”, “low polyreactivity”. With “QDQHVESGGGLVQAGGSLRLSCAASGYILRCNTMGWSRKAPGKERELVAAISSRGGITNYADSVKGRFTFSRDNAKNTVYLQMNSRKPEDTAVYYCATYWQYRYDYWGQGTQVTVSS” the entry was “low polyreactivity”; with “QVQLVESGGGLVQAGGSLRISCAASGFTYSSYAMGWYRQATGKERELVAAISTRGGSTYYADSVKGRFTISRDNAKNTVYLQMNSLKPEDTAVYYCSTGGRGGRRYEYWGQGTQVTVSS”, “low polyreactivity”.

“QVQLVESGGGLVQAGGSLRLSCAASGFIFGLYAMGWYRQAPGKERELVATISWDGGSTYYADSVKGRFTISRDYAKNTVYLQMNSLKPEDTAVYYCAATYLYRSPYVPMDYWGQGTQVTVSS”: the “polyreactivity (PSR sort gate)” value is given as “low polyreactivity”.

As to “QVKLVESGGGLVQAGGSLRISCAASGRIFKIYAMGWYRQAPGKERELVAAISRGGRTYYADSVKGRFTISRDNAKNTVDLQMNSLKPEDTEVYYCAADLLISPEFYYWGQGTQVTVSS”, the “polyreactivity (PSR sort gate)” value is on record as “high polyreactivity”.

For the sequence “QVQLVESGGGLVQAGGSLRLSCAASGRIFQRNVMGWYRQAPGKERELVAAITGSGGSTYYADSLKGRFTISRDNAKNTVYLQMNSLKPEYTAVYYCAAKVYRGYDYWGQGTQVTVSS”, the “polyreactivity (PSR sort gate)” value was “high polyreactivity”. For “QVQLVESGRGLVQAGGSLRLSCAASGFTFRYYAMGWYRQAPGTERELVAAITYSGGGTYYADSVKGRFTISRDNANYTVYLQMNSLKPEDSAVYYCARRGRKAYAYWGQGTQVTVSS”, the “polyreactivity (PSR sort gate)” value is “high polyreactivity”. In the case of “QVQLVESGGGLVQAGGSLRLSCAASGSIFGYYTMGWYRQAPGKERELVAGIDFITTSTYYADSVKGRFTISRDNAKNTVYLQMNSLKPEDTAVYYCNADPFTGYDYWGQGTQVTVSS” it was “low polyreactivity”; in that of “QVQLVESGGGLVQAGGSLRLSCAASGSTFRRNVMGWYRQAPGKERELVAAISRSGGRTYYADSVKGRFTISRDNAKNTVYLQMNSLKPEDTAVYYCNATRAGENPDGGDEYWGQGTQVTVSS”, “high polyreactivity”; in that of “QVQLVESGGGLVQAGGRLRLSCAASGRIFYGNAMGRYRPAPVKERELVATISSSGGSTTYADSVKGRFTISRDNAKYTVYLQMNSLKPEDSAVYYCADQGYWTGYDYWGQGSQVTVSS”, “high polyreactivity”. In the case of “QVQLVESGGGLVQAGGSLRLSCAASGSTFQTYAMGSYRPAPGKERELVAAISKTGASTYYADSVKGRFTISRDNAKNTVNLQMNSLKPEDTAVYYCAAGRYTSYYPRYYYWGQGTQVTVSS” it was “high polyreactivity”; in that of “QVQLVESGGGLVQAGGSLRLSCAPSGSIFGVYAMGWYRQAPGKERELVDTISWSAGSTYYADSVKGRFTISRDNAKNTVYLQMNSLKPVDTAVYYCGAGVRWLGLYDLFTFDYWGQGTQVTVSS”, “low polyreactivity”; in that of “QVQLVESGGGLVQAGGSLRLSCAASGRTFYLYAMGWYRQAPGKERELVAAITSGGSTYYADSVKGRFTISRDNAKNTVYLQMNSLKPEDTAVYYCAAYAYLTAGTSRRRGYWGQGTQVTVSS”, “high polyreactivity”. With “QVQLVESGGGLVQAGGSLRLSCAASGRTFGRYAMVWSRQAPGKERELVAAITRGGGSTYYADSVKGRFTISRDNAKYTVYLQMNSLKPEDTAVYYCAARNFRSPYGYDYWGQGTQVTVSS” the entry was “high polyreactivity”; with “QVQLQESGGGLVQAGGSLRLSCAAIGTIFASQHMGWYRQAPGKERELVASIAKGGNTYYADSVKGRFTISRGNAKNTEYLQMNSLKPEDTAVYYCAAEIDLPYYYGSADDDYWGQGTQVTVSS”, “high polyreactivity”; with “QVQLVESGGGLVQAGGSLRLSCAASGYTRFYAMGWYRQAPGTERELVAAISSSGGTTYYADSVKGRFTISRDNAKNTVYLQMNSLKPEDTAVYYCAKYVSYSRTLYDYWGQGTQVTVSS”, “low polyreactivity”. In the case of “QVQLVESGGGIVQAGGSLRLSCAASGSNFYANPMGWYRQAPGKERELVAAITRSGAGTYYADSVKGRFTISRDNAKNTVYLQMNSLKPEDTAVYDCAKRTKTPTGYDWGGYDYWGQGTQVTVSS”, the “polyreactivity (PSR sort gate)” value was “high polyreactivity”. In the case of “QVQLQESGGGLVQAGGSLRLSCAASGDILEADDMGWYRQAPGKERELVASITDGGSTNCADSMKGRSTICRDNAKITVYVQMNRLKLEDTAVYYCAGIAYPDVPTYFDYDSDYFYWGQGTLVTVSS”, the “polyreactivity (PSR sort gate)” value was “high polyreactivity”. In the case of “QVQLVESGGGLVQAGGSLRLSCAASGSIFYVYAMGWYRQAPGKERELVAAISWRGGSTYYADSVKGRFTISRDIAKITVYLQMNSLKPEDTAVYYCNADWSFWGQGTQVTVSS”, the “polyreactivity (PSR sort gate)” value was “high polyreactivity”. In the case of “QLQLVESGGGLVQAGGSLRLSCAASGSTLYWNAMGWYRQAPGKERELVAGISIGGRTNYADSVKGRFTISRDNAKNTVYLQMNSLKPEDTAVYYCNAENTYLGSRYRPYNYWGQGTQVTVSS” it was “low polyreactivity”. As to “QVQLVESGGGLVQAGGSLRLSCAASGRIFKSYAMGWYRQAPGKEWELVAAISRGGRTNYADSVKGRFTISRDNAKNTVYLHMHSLKPEDTAVYYCAAYHRDRNSGFDYWGQGTQGTVSS”, the “polyreactivity (PSR sort gate)” value was “high polyreactivity”. In the case of “QVQLVESGGGLVQAGGSLRLSCAASRSIFYFYAMGWYRHAPWKERELVAAINSGGTTNYADSVKGRFTISRDNAKNTVYSQMNSLKPEDTAVYYCAARLLIRYYYWGQGTLVTVSS” it was “high polyreactivity”; in that of “QVQLVESGGGLVQAGGSLRLSCAASGSIFYKYTMGWYRQAPGKERELVAAITRSGGSTYYADSVKGRFTISRDNAKNTVYLQMNSLKPEDTAVYYCAAERASFRYQDYYIYDYWGQGTQVTVSS”, “high polyreactivity”; in that of “QVQHVESGGGLVQAGGSLRLSCAASGRIFVNYAMGWSRQAPGKERELVAAITYIDSGTYYADSVKGRFTISRDNAKNTVYFQRNSLKPEDTAVYYCAVRLNSDSNRKTQKYGYWGQGTQVTVSS”, “low polyreactivity”.
